Data published in the supplement of paper PMC10126150.
± gives the standard deviation of the averaged measurements.

test system: ATP; test: switch fluorescence ratio, 500 uM ATP over buffer (Cy3 cluster intensity, sum of 5 cycles each) (fold (ratio)); higher = stronger signal-on switching upon ATP binding; sequences stand for … in TCGTCGGCAGCGTCAGATGTGTATAAGAGACAGTTTTTTTTTTTTTTTTTTTTTTTTT…TC; settings: aptamer strand: ATP DNA aptamer (quencher-CACCTGGGGGAGTATTGCGGAGGAAGG + anchor), 100 nM annealed; ATP concentration: 500 uM
In short: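 Between each of five buffer/ATP cycles, the flow-cell was stripped with NaOH and re-annealed. Each cycle imaged Cy3-labelled switching-strand clusters, annealed to 100 nM quencher-labelled ATP aptamer on a modified Illumina MiSeq flow-cell, first in selection buffer and then after 15 min with 500 uM ATP at 22 °C. The fluorescence ratio is summed target-cycle over summed buffer-cycle Cy3 intensity per cluster, averaged per switch-domain sequence, with clusters outside 100-1000 RFU excluded.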
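Note: ATP exposure 15 min at 22 °C before imaging.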

Sequence | switch fluorescence ratio
AGTTTGGTCA | 0.98 ± 0.021
GTGCGCGGCC | 1.01 ± 0.051
TTAGACAAGG | 0.95377 ± 0.00078
TTATAACTCG | 0.995 ± 0.035
ATCCAGGGGA | 0.989 ± 0.06
TTATGGCTGA | 0.988 ± 0.017
GGTCATAGTG | 1.01 ± 0.018
CAGTAAGATC | 1.026 ± 0.0056
CGGTCCGTTT | 1.02 ± 0.042
TTATAAGTAT | 1 ± 0.031
TTGCGAGAGA | 0.993 ± 0.035
CCTATTACGA | 1.04 ± 0.015
GAGGTTGGGA | 1.01 ± 0.012
CGGATGGATC | 1.02 ± 0.041
GGAGTCTAGC | 0.9825 ± 0.0036
TTCTGGGGAG | 1.03 ± 0.051
TACGGGTATA | 1.01 ± 0.025
GCCGCTATTT | 1.43 ± 0.18
TGTTAGGGTG | 1.04 ± 0.033
GTAAGGAGGG | 0.981 ± 0.032
TGGGGTCAAA | 0.995 ± 0.036
AGGGATTGAA | 0.9875 ± 0.0022

Sequence | switch fluorescence ratio
GGAAGTTCTA | 0.984 ± 0.016
ATACTTGTAT | 1.0048 ± 0.00054
CAAGCATAGG | 1.07 ± 0.072
TAAGTATGGT | 1.03 ± 0.046
TGATTATTGG | 1 ± 0.061
TGTGTGAGAA | 0.997 ± 0.022
GACGACGTTG | 1.06 ± 0.026
GACGACGATG | 1.016 ± 0.0022
AATGCTGTGT | 0.97 ± 0.021
AAGGCGGGTG | 1.01 ± 0.015
GCTCTATTTT | 0.997 ± 0.019
GATGAGCCTA | 1.01 ± 0.073
AATGGAATTT | 1.03 ± 0.066
CTAAACGGTG | 1.03 ± 0.012
CTAAGTTCCG | 1.015 ± 0.01
AAATGGGGGG | 0.974 ± 0.017
ATGAGAGCTT | 0.982 ± 0.011
CGGGATATAT | 0.994 ± 0.028
AGAGATGTGG | 0.958 ± 0.036
TAGCAATTAT | 1.81 ± 0.085
TTTTTGTGGA | 1.03 ± 0.019
AGTATCCAAA | 0.999 ± 0.027

Sequence | switch fluorescence ratio
TTATTCCGGT | 1.006 ± 0.0024
AGCTGCAGTG | 1.02 ± 0.019
AGTGTGGCCA | 1.02 ± 0.016
TATCAGATTA | 0.998 ± 0.033
GTTGTCCTTG | 1.01 ± 0.015
GACGGGAGGG | 1.02 ± 0.02
AGCCATGGCT | 0.9927 ± 0.0099
TTTTTTTGTG | 0.984 ± 0.019
ATGAAGGGAA | 0.999 ± 0.017
CGGTTAGGGA | 0.965 ± 0.03
GCCTCGGGGG | 0.953 ± 0.021
AGGGGGTAGA | 1.05 ± 0.027
ATAGTGAGTA | 0.996 ± 0.018
CGCCCGCACG | 1.93 ± 0.5
ACGGGTTCGT | 1.01 ± 0.012
TTTTCGTGCA | 1.03 ± 0.046
GGCTAAGGTC | 1 ± 0.044
TTTGGACTGT | 0.988 ± 0.019
CAAACGCGCG | 0.997 ± 0.045
AAGTTCGCTG | 1.01 ± 0.065
TGTGGTGGAG | 0.9617 ± 0.0071
AGGTTGAAGG | 0.997 ± 0.016

Sequence | switch fluorescence ratio
TCATTTATTG | 1.02 ± 0.024
TGGTGGCTTG | 0.991 ± 0.022
AAAACCGGGA | 1.32 ± 0.52
CGCAATGGGG | 2.98 ± 0.53
AGAGTATGAA | 1 ± 0.032
ATTTGGTGCT | 0.999 ± 0.018
ATAGTAAGCC | 1.04 ± 0.031
CGGTGACTGA | 0.9569 ± 0.008
TTTGAGGGGC | 0.995 ± 0.024
ATAAGTATGA | 1.01 ± 0.034
ATGGATCTCA | 1 ± 0.0063
ATGTAGTTGG | 1 ± 0.016
TAAGGGGGGG | 1 ± 0.029
TTGGGTCTCC | 1.03 ± 0.027
TTTGGGAAAT | 1.07 ± 0.1
TTGGAGTTGT | 1.02 ± 0.098
CTGGAGTCTG | 1.11 ± 0.086
AGGCAAACCC | 1.0669 ± 0.00051
GTAAGGGAAT | 0.9718 ± 0.0065
